Source: patent CN111793131A

Key:
[1] = molecular target: PF4全抗原 (血小板因子4, platelet factor 4) (Homo sapiens (Human)) (UniProt P02776); experiment: chemiluminescent ELISA, antigen coated at 2ug/ml, 2ul antibody, HRP goat anti-mouse IgG, luminol (blank 3280)
[2] = molecular target: PF4全抗原 (血小板因子4, platelet factor 4) (Homo sapiens (Human)) (UniProt P02776); experiment: chemiluminescent ELISA, antigen coated at 2ug/ml, 10ul antibody, HRP goat anti-mouse IgG, luminol (blank 3280)
[3] = molecular target: PF4全抗原 (血小板因子4, platelet factor 4) (Homo sapiens (Human)) (UniProt P02776); experiment: chemiluminescent ELISA, antigen coated at 2ug/ml, 50ul antibody, HRP goat anti-mouse IgG, luminol (blank 3280)

Chain of UniProt P02776 (P02776 32-101 limits assumed): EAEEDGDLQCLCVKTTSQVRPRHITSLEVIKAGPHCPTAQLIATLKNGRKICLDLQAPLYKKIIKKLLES

B1: 单克隆抗体AntiPF4_N (杂交瘤来源, 实施例1) (antibody, V domains shown)
VH: EVKLEESGGGLVQPGGSMKLSCVASGFTFSNYWMNWVRQSPEKGLEWVAEIRLKSNNYATHYAESVKGRFTISRDDSKSSVYLQMNNLRAEDTGIYYCTGYDFDYWGQGTTLTVSS
VL: DVVMTQTPLSLPVSLGDQASISCRSSQSLVHNYGNTFLHWYLQKPGQSPKLLIYSTSNLFSGVPDRFSGSGSGTDFTLKISRVEAEDLGVYFCSQSTHVPPTFGGGTKLEI
发光值 [1]: 63000
发光值 [2]: 256000
发光值 [3]: 994000
